Results: patent US20240216513A1, “FATTY ACID-BIFUNCTIONAL DEGRADER CONJUGATES AND THEIR METHODS OF USE” (Novartis AG, priority 2021, published 2024)
Like-named read-outs stand apart in the source and are kept apart here.

What was measured:
[1] = In vivo pharmacokinetic study in mice (i.v. or s.c.), FAC and payload in blood; set-up: species or system mouse; conditions: for AUC: male
Method: (§1) Pharmacokinetic studies were conducted in male C57/B16 mice; male Sprague-Dawley rats; male Beagle dogs and male Cynomolgus monkeys. 3 animals per group were used for each study performed. All studies were performed in accordance with local animal welfare regulations.
[…] Serial 30 µL blood samples were collected via venipuncture of the tail vein in mouse, and via the cannulated jugular vein in rats at defined timepoints to 216 hours (into EDTA coated tubes).
(§2) Each blood sample was precipitated with acetonitrile containing internal standard; samples were mixed and centrifuged (20 minutes 4000 RPM at 4° C.). Supernatant was transferred to a microwell plate and evaporated under nitrogen at 60° C. Residue was resuspended in acetonitrile/water (7:3 v/v); plate sealed and transferred to an ultrasonic bath for 3 minutes, prior to analysis. Quantification was performed by LC-MS/MS (SciexAP16500 Q-trap, Shimadzu Nexera X2) using a Phenomenex Polar RP analytical column (2.5 μm particle size; 50×2 mm). The mobile phase consisted of solvent A (0.1% formic acid in water) and solvent B (0.1% formic acid in acetonitrile). The fatty acid conjugate and API were detected using multiple reaction monitoring.
(§3) Data analysis and calculation of non-compartmental pharmacokinetic parameters was
(§4) performed using an in-house analysis. Following intravenous administration whole blood clearance was calculated by the dose administered divided by AUC0-inf. Volume of distribution at steady state was calculated as MRT*CL, where MRT is the mean residence time, calculated by AUMC0-inf/AUC0-inf. The half-life (t1/2) of the terminal elimination phase was calculated by 0.693/λ. For both intravenous and subcutaneous administration, the systemic exposures were determined by calculating the area under the blood concentration time curve (AUC) from time zero to the last observed quantifiable concentration (AUClast) by using the linear trapezoidal method and normalised to dose. Extrapolated AUC (AUC0-inf) is calculated by addition of AUClast and AUCtlast-inf; where AUCtlast-inf is calculated based on Clast/λ. The slope of the terminal elimination phase was estimated by linear regression of the terminal data points (minimum 3 points) from a natural log concentration versus time plot of the data. Bioavailability was calculated as the dose normalized ratio of […] AUCinf to intravenous AUCinf (100*[SC AUCinf/SC dose]/[IV AUCinf/IV dose]). Following subcutaneous administration Cmax is calculated as the average maximum observed peak concentration and Tmax is the time associated with the determined Cmax.
For PK experiments, non-tumor bearing mice or rats were treated once (10 mL/kg) with a compound either i.v. or s.c. Serial blood samplings from the tail vein (5-20 μl) were collected during the course of the experiment. For PK/PD experiments in tumor-bearing mice, compound was administered once (10 mL/kg) either i.v. or s.c. Animals were randomized into groups of n=3 and tissue samples were collected at several time points. At the times indicated, animals were anaesthetized by exposure to 2-3% v/v isoflurane in medical oxygen. They were sacrificed without recovering from anesthetic after blood sampling into commercially prepared EDTA coated tubes (Milian, cat #TOM-14C) in order to extract plasma. The tissues were excised, weighted and rapidly frozen in liquid nitrogen. Later, tumors were cryogenic dry pulverized with the CryoPrep™ system (model CP-02, Covaris). For efficacy experiments in ectopic tumor-bearing mice, animals were randomized into groups of n=6 for a mean tumor size of 100 mm^3 and compound was administered either i.v. q3w or s.c. q2w. When implanted in brain, animals were randomized into groups of n=4 for a mean bioluminescence of 1.0-2.0E+06 [p/s]/[ρW/cm^2] and compound was administered i.v. qw. Tumor response were reported with the measures of tumor volumes or bioluminescence from the treatment start. […]

[2] = BTK FAC plasma stability assay, PBS buffer arm; type: physicochemical; conditions: for Plasma stability (h) PBS: incubation to 24 h
In short: (§5)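 Stability in PBS buffer or EDTA-treated plasma is followed over 24 h at 38 °C with shaking. Protein precipitation with acetonitrile (glyburide 0.2 µM as internal standard) stops each timepoint, and LC-MS/MS gives analyte-to-standard area ratios.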

[3] = BTK FAC plasma stability assay, mouse plasma; type: in vitro ADME; conditions: for Plasma stability (h) mouse: incubation to 24 h
In short: as §5

[4] = BTK FAC plasma stability assay, rat plasma; type: in vitro ADME; conditions: for Plasma stability (h) rat: incubation to 24 h
In short: as §5

[5] = BTK FAC plasma stability assay, dog plasma; type: in vitro ADME
[6] = In vivo pharmacokinetic study in Beagle dogs (i.v. or s.c.), FAC and payload in blood; set-up: species or system dog; conditions: for Payload C0-uM dog: analyte payload after FAC i.v. dose 1 umol/kg
Method: as §1
Between 1 and 10 µM/kg FAC was administered either intravenously or subcutaneously as a solution in 10 mM PBS with NaOH (dose volume 0.4 mL/kg in dog and monkey s.c. and 0.2 mL/kg i.v. in monkey). Serial 100 µL blood samples were collected via venipuncture of the cephalic vein at defined timepoints to 336 hours (into EDTA coated tubes).
as §2, §3, §4

[7] = BTK FAC plasma stability assay, cyno plasma; type: in vitro ADME, cynomolgus monkey
BTK C481S = molecular target: T1, BTK C481S (Homo sapiens, UniProt Q06187, C481S); assay: PD screen in TMD8 BTK C481S mutant tumor-bearing mice, BTK levels and compound concentrations in blood and tumor; type: in vivo, mouse; conditions: i.v.; 50 umol/kg
T1 construct: endogenous in cells; host or cells: TMD8 BTK C481S mutant tumour xenografts in mice
T1 sequence (Q06187 whole entry C481S): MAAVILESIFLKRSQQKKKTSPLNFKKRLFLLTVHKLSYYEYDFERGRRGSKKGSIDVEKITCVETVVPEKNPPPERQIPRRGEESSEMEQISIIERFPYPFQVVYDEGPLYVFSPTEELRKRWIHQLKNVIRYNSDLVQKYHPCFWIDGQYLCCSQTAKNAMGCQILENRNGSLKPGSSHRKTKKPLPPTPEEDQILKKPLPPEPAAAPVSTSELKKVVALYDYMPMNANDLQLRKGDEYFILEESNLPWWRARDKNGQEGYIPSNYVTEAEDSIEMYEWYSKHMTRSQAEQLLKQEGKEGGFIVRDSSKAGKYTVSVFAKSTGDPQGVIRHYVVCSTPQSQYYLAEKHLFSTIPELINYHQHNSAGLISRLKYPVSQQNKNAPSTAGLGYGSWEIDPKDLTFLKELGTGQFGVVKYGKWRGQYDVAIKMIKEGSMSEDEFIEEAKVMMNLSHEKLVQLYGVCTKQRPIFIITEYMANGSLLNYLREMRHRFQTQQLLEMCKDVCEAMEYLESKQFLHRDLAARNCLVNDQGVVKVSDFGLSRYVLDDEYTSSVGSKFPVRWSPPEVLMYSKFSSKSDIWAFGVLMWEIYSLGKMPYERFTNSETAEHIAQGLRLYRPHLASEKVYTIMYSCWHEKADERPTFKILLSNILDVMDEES
Method: All animal studies were conducted in accordance with ethics and procedures covered by permit nos. BS-1975 issued by the Kantonales Veterinäramt Basel-Stadt and in strict adherence to guidelines of the Eidgenössisches Tierschutzgesetz and the Eidgenössische Tierschutzverordnung, Switzerland. All animals had access to food and water ad libitum and were identified with transponders. They were housed in a specific pathogen-free facility with a 12-h light/12-h dark cycle. For PD screen experiments in TMD8 BTK C481S mutant tumor-bearing mice, FAC was injected once. Animals were randomized into groups of 2 and tissue samples collected at day 0, 4, 7 and in some studies day 10 as well. Blood samples were collected and tumors were excised, weighed, frozen in liquid nitrogen and cryogenic dry pulverized with the CryoPrep™ system (model CP-02, Covaris). Concentrations of compounds in blood and tumors were determined by UPLC/MS-MS and BTK levels were analyzed by Meso Scale Discovery.

SMILES	Payload C0-uM (unconjugated degrader dosed, first payload cell) ([1]; API i.v., listed as note (20 mg/kg), species taken as mouse)	AUC ([1]; C57/B16, whole blood, iv, API i.v., listed as note (20 mg/kg), species taken as mouse, read-out: Payload AUC-uM.h (unconjugated degrader dosed, first payload cell))	AUC ([1]; C57/B16, whole blood, sc, mouse, subcutaneous dosing, unconjugated Compound Va at 20 mg/kg, read-out: Payload AUC)	% Release of degrader after 24 h PBS [2]	Plasma stability (h) PBS [2]	% Release of degrader after 24 h mouse [3]	Plasma stability (h) mouse [3]	% Release of degrader after 24 h rat [4]	Plasma stability (h) rat [4]	Plasma stability (h) dog [5]	% Release of degrader after 24 h dog [5]	C0 ([6]; analyte FAC, FAC i.v. dose 1 umol/kg, read-out: FAC C0-uM dog)	AUC ([6]; male, Beagle, dog, whole blood, iv, analyte FAC, FAC i.v. dose 1 umol/kg, read-out: FAC AUC-uM.h dog)	C0 ([6]; male, Beagle, whole blood, sc, dog, subcutaneous dosing, FAC s.c. dose 1 umol/kg, read-out: FAC C0)	Plasma stability (h) cyno [7]	% Release of degrader after 24 h cyno [7]	Payload C0-uM dog [6]	Duration of BTK degradation in mouse ≥90% (BTK C481S)	AUC ([1]; C57/B16, mouse, in vivo, iv, analyte FAC, FAC i.v. dose 10 umol/kg, read-out: FAC AUC-uM.h mouse)
COc1ccc(C(=O)N2CCC3(CCN(CCc4ccc(-c5cc6c(-c7cc(F)cc(NC(=O)N8C[C@H](CC(C)C)[C@@H](O)C8)c7C)ncnc6[nH]5)cc4)CC3)CC2)cc1N1CCC(=O)NC1=O [Compound Va, (3R,4S)—N-(3-(6-(4-(2-(9-(3-(2,4-dioxotetrahydropyrimidin-1(2H)-yl)-4-methoxybenzoyl)-3,9-diazaspiro[5.5]undecan-3-yl)ethyl)phenyl)-7H-pyrrolo[2,3-d]pyrimidin-4-yl)-5-fluoro-2-methylphenyl)-3-hydroxy-4-isobutylpyrrolidine-1-carboxamide]	16.7 µM	15.2 µM·h	15.2 µM·h																
CCCCCCCCCCCN(C(=O)CCCCCCCCCC(=O)O)C(CCC(=O)NCCOCCOCCOCCOCCOCCOCCOCCOCCOCCOCCOCCOCCC(=O)NCC(=O)OC(C)(C)c1ccc(C(=O)Nc2cc(F)cc(-c3ncnc4[nH]c(-c5ccc(CCN6CCC7(CC6)CCN(C(=O)c6ccc(OC)c(N8CCC(=O)NC8=O)c6)CC7)cc5)cc34)c2C)c(F)c1)C(=O)O (centres unmarked) [Example A1, 50-Carboxy-2-(4-((3-(6-(4-(2-(9-(3-(2,4-dioxotetrahydropyrimidin-1(2H)-yl)-4-methoxybenzoyl)-3,9-diazaspiro[5.5]undecan-3-yl)ethyl)phenyl)-7H-pyrrolo[2,3-d]pyrimidin-4-yl)-5-fluoro-2-methylphenyl)carbamoyl)-3-fluorophenyl)-2-methyl-4,7,47,52-tetraoxo-51-undecyl-3,10,13,16,19,22,25,28,31,34,37,40,43-tridecaoxa-6,46,51-triazadohexacontan-62-oic acid]				1%	>48 h	15.1%	28 h	17.4%	34.8 h	>48 h	14.6%	27.2 µM	6.8 µM·h	0.28 µM					
CCCCCCCCCCCN(C(=O)CCCCCCCCCC(=O)O)C(CCC(=O)NCCOCCOCCOCCOCCOCCOCCOCCOCCOCCOCCOCCOCCC(=O)NC(C)(C)CC(=O)OC(C)(C)c1ccc(C(=O)Nc2cc(F)cc(-c3ncnc4[nH]c(-c5ccc(CCN6CCC7(CC6)CCN(C(=O)c6ccc(OC)c(N8CCC(=O)NC8=O)c6)CC7)cc5)cc34)c2C)c(F)c1)C(=O)O (centres unmarked) [Example A18, 51-Carboxy-2-(4-((3-(6-(4-(2-(9-(3-(2,4-dioxotetrahydropyrimidin-1(2H)-yl)-4-methoxybenzoyl)-3,9-diazaspiro[5.5]undecan-3-yl)ethyl)phenyl)-7H-pyrrolo[2,3-d]pyrimidin-4-yl)-5-fluoro-2-methylphenyl)carbamoyl)-3-fluorophenyl)-2,6,6-trimethyl-4,8,48,53-tetraoxo-52-undecyl-3,11,14,17,20,23,26,29,32,35,38,41,44-tridecaoxa-7,47,52-triazatrihexacontan-63-oic acid]				0.6%	>48 h	0.8%	>48 h	0.2%	>48 h	>48 h	0.3%				>48 h	0.4%	0.3 µM	<4 days	
CCCCCCCCCCCN(C(=O)CCCCCCCCCC(=O)O)C(CCC(=O)NCCOCCOCCOCCOCCOCCOCCOCCOCCOCCOCCOCCOCCC(=O)NCc1ccc(CC(=O)OC(C)(C)c2ccc(C(=O)Nc3cc(F)cc(-c4ncnc5[nH]c(-c6ccc(CCN7CCC8(CC7)CCN(C(=O)c7ccc(OC)c(N9CCC(=O)NC9=O)c7)CC8)cc6)cc45)c3C)c(F)c2)cc1)C(=O)O (centres unmarked) [Example A23, 46-Carboxy-1-(4-(2-((2-(4-((3-(6-(4-(2-(9-(3-(2,4-dioxotetrahydropyrimidin-1(2H)-yl)-4-methoxybenzoyl)-3,9-diazaspiro[5.5]undecan-3-yl)ethyl)phenyl)-7H-pyrrolo[2,3-d]pyrimidin-4-yl)-5-fluoro-2-methylphenyl)carbamoyl)-3-fluorophenyl)propan-2-yl)oxy)-2-oxoethyl)phenyl)-3,43,48-trioxo-47-undecyl-6,9,12,15,18,21,24,27,30,33,36,39-dodecaoxa-2,42,47-triazaoctapentacontan-58-oic acid]				0.2%	>48 h	5.8%	>48 h	1.1%	>48 h	>48 h	0.8%				>48 h	0.6%	0.59 µM		856 µM·h
